Results on 16 molecules are retold here after patent US11912789 (INTERK PEPTIDE THERAPEUTICS, dated 2024).

Read-outs that look alike come from different tables or passages of the source. No end group written: not given here. 2Adod = 2-amino-dodecanoic acid; 2Adec = 2-amino-decanoic acid; 12Ado = NCCCCCCCCCCCC(=O)O

Targets include Blk (UniProt P51451 1-505, limits assumed); Fgr (UniProt P09769 1-529, limits assumed); Lyn (UniProt P07948 1-512, limits assumed); cSRC (UniProt P12931 1-536, limits assumed); Yes (UniProt P07947 1-543, limits assumed); Hck (UniProt P08631 251-518, limits assumed); Fyn (UniProt P06241 1-537, limits assumed).
What all share (assay): cell-based or functional assay
Test [1] has as its target T1, Lymphocyte-specific protein tyrosine kinase (Lck), enzyme in cell-free kinase assay (human, UniProt P06239 1-509, limits assumed).
Test [2] deals with T1, Lymphocyte-specific protein tyrosine …. The source holds these as a separate data set.
For test [3] the target is unchanged. The source holds these as a separate data set.
Test [4] has the same target. This is another data set of the same source.

T1 sequence (P06239 whole entry): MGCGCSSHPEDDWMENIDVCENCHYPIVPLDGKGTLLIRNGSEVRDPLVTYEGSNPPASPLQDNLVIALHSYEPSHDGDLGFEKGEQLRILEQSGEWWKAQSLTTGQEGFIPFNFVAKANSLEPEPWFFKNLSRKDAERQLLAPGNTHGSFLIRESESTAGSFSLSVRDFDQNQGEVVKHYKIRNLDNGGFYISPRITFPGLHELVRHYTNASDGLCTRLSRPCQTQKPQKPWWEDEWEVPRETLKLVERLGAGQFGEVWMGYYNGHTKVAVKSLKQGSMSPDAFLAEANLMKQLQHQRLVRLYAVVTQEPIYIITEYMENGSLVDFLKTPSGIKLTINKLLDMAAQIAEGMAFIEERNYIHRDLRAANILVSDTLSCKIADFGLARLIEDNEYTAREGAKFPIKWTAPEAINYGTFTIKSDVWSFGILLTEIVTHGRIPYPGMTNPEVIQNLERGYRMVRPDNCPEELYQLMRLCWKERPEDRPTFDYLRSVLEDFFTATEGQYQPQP
Chain of Yes (P07947 whole entry): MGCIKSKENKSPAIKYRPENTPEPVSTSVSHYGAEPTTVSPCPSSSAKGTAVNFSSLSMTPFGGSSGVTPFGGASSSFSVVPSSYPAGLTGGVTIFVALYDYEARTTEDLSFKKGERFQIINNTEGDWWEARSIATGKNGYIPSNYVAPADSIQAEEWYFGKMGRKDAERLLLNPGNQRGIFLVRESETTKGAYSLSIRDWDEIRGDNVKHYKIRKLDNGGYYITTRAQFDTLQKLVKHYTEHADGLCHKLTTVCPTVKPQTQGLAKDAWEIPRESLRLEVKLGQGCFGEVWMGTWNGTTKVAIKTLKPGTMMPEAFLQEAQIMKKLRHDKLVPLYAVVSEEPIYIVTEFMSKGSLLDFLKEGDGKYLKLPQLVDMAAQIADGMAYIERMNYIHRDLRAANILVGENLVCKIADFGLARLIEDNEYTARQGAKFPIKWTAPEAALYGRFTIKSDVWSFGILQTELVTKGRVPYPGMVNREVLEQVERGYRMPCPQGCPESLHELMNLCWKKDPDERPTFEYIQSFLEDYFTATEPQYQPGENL
Chain of Fyn (P06241 whole entry): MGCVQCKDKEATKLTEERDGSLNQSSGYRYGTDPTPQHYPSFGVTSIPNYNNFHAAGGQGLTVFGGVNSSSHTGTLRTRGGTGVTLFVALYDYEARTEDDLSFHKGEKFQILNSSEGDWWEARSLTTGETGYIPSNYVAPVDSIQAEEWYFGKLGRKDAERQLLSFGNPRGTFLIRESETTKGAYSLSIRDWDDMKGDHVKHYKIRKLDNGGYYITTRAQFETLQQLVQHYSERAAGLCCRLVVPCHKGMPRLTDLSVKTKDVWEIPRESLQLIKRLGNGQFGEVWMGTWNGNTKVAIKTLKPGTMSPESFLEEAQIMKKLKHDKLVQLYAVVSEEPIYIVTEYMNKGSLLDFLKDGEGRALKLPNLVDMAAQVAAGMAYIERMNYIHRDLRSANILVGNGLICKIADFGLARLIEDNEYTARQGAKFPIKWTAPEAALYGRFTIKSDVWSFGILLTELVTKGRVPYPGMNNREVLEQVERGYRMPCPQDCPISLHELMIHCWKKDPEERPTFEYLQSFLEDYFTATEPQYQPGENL
Chain of Hck (P08631 251-518 limits assumed): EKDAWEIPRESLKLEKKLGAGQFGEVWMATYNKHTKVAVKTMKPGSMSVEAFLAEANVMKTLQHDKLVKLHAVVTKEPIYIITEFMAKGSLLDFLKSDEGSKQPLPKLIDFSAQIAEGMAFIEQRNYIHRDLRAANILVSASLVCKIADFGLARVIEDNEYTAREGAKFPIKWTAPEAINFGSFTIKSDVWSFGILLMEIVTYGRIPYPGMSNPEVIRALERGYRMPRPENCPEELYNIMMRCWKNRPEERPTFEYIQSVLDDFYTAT
Chain of Lyn (P07948 whole entry): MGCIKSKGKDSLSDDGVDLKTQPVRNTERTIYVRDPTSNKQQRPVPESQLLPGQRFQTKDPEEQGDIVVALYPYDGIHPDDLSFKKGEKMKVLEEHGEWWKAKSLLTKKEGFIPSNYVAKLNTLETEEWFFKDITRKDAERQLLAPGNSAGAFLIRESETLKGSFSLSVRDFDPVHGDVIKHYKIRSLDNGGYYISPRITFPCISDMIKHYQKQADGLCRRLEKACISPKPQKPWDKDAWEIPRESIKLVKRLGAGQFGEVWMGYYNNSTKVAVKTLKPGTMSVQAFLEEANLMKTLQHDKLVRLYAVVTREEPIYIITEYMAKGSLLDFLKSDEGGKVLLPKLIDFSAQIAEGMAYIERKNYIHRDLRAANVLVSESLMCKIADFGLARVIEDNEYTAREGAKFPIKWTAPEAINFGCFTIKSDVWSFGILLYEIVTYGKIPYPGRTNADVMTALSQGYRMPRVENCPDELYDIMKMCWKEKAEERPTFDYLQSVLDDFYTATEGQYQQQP
Chain of Blk (P51451 whole entry): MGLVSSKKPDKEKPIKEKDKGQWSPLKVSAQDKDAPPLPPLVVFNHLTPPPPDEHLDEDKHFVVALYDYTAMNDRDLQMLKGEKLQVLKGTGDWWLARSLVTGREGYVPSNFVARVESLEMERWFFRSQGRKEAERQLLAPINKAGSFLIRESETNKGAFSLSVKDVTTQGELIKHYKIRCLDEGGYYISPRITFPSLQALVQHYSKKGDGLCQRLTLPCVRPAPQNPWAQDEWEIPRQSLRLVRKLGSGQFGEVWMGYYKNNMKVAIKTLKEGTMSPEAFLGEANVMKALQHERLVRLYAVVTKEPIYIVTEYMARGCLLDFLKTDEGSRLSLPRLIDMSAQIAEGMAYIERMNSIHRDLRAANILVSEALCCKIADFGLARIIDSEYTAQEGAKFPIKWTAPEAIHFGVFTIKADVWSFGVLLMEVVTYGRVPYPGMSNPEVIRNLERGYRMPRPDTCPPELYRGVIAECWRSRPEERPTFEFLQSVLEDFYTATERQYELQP

Take RSKAKNPLYR-{2Adod-2Adod-2Adod-2Adod-OH} [RSKAKNPLYR-(2Adod)4-OH]: the “level of Lck activation relative to the amidated compound …-(2Adod)4-NH2” value in test [1] is about 50%.
Regarding DSEAENPLYD-{2Adod-2Adod-2Adod-2Adod-NH2} [DSEAENPLYD-(2Adod)4-NH2], the “Lck Activation above control, 1 µM” value in test [2] was found to be 0%.
On to RVKVKVVVVR, for which, in [3], the “Lck Activation above control, 1 µM” value stood at 13% and the “Lck Activation above control, 10 µM” value amounted to 183%.
Consider RSKAKNPLYR-{2Adec-2Adec-2Adec-2Adec-NH2} [RSKAKNPLYR-(2-Adec)4-NH2], for which, in test [2], the “Lck Activation above control, 1 µM” value came out at 127%.
Consider KEKLKNPLF, for which, in [3], the “Lck Activation above control, 1 µM” value stood at 0%; the “Lck Activation above control, 10 µM” value turned out to be 0%; the “Lck Activation above control, 30 µM” value was determined as 14%.
In the case of RSKAKNPLYR-{12Ado-12Ado-12Ado-12Ado-NH2} [RSKAKNPLYR-(12-Adod)4-NH2], the “Lck Activation above control, 1 µM” value in test [2] amounted to 96%.
Regarding SKAKNPLYR, in test [3], the “Lck Activation above control, 1 µM” value came out at 0%; the “Lck Activation above control, 10 µM” value stood at 0%; the “Lck Activation above control, 30 µM” value was determined as 0%.
For RSKAKNPLYR, in [3], the “Lck Activation above control, 1 µM” value amounted to 0%; the “Lck Activation above control, 10 µM” value turned out to be 0%; the “Lck Activation above control, 30 µM” value turned out to be 0%. In addition, the “Lck activity relative to control, peptide at 10 µM” value in test [4] was 0%. Further, in the test with Blk, the “Blk activity relative to control, peptide at 10 µM” value is 0%. For the same molecule, the “Fgr activity relative to control, peptide at 10 µM” value in the test with Fgr was found to be 0%. Further, the “Lyn activity relative to control, peptide at 10 µM” value in the test with Lyn is 0%. In addition, the “cSRC activity relative to control, peptide at 10 µM” value with cSRC was found to be 0%. Further, the “Yes activity relative to control, peptide at 10 µM” value in the test with Yes was 0%. Also, the “Hck activity relative to control, peptide at 10 µM” value in the test with Hck is 0%. In addition, the “Fyn activity relative to control, peptide at 10 µM” value with Fyn was determined as 0%.
For the molecule RSKAKNPLY, in [3], the “Lck Activation above control, 1 µM” value amounted to 0%; the “Lck Activation above control, 10 µM” value was determined as 186%; the “Lck Activation above control, 30 µM” value was 407%. Further, in test [4], the “Lck activity relative to control, peptide at 10 µM” value came to 186%. Further, the “Blk activity relative to control, peptide at 10 µM” value in the test with Blk came out at 0%. The “Fgr activity relative to control, peptide at 10 µM” value with Fgr came to 0%. Also, in the test with Lyn, the “Lyn activity relative to control, peptide at 10 µM” value stood at 0%. Moreover, the “cSRC activity relative to control, peptide at 10 µM” value with cSRC is 0%. Also, in the test with Yes, the “Yes activity relative to control, peptide at 10 µM” value was 0%. Besides, the “Hck activity relative to control, peptide at 10 µM” value in the test with Hck is 0%. Also, the “Fyn activity relative to control, peptide at 10 µM” value with Fyn was determined as 0%.
Turning to ASKAKNPLY, in test [3], the “Lck Activation above control, 1 µM” value was 0%; the “Lck Activation above control, 10 µM” value worked out at 0%; the “Lck Activation above control, 30 µM” value is 0%.
Take RYLPNKAKS: in test [3], the “Lck Activation above control, 1 µM” value was determined as 0%; the “Lck Activation above control, 10 µM” value was 0%; the “Lck Activation above control, 30 µM” value amounted to 5%.
RSKAKNPLYR-{2Adod-2Adod-2Adod-2Adod-NH2} [RSKAKNPLYR-(2Adod)4-NH2]: in [2], the “Lck Activation above control, 1 µM” value worked out at 499%.
For RVKVKVVVV, in test [3], the “Lck Activation above control, 1 µM” value was found to be 518%; the “Lck Activation above control, 10 µM” value was 501%; the “Lck Activation above control, 30 µM” value stood at 363%.
With RSAAKNPLY, in test [3], the “Lck Activation above control, 1 µM” value amounted to 0%; the “Lck Activation above control, 10 µM” value stood at 0%; the “Lck Activation above control, 30 µM” value is 0%.
With RSRARNPLY, in test [3], the “Lck Activation above control, 1 µM” value was found to be 0%; the “Lck Activation above control, 10 µM” value turned out to be 0%; the “Lck Activation above control, 30 µM” value came out at 0%.
Regarding RSKAANPLY, in test [3], the “Lck Activation above control, 1 µM” value was 0%; the “Lck Activation above control, 10 µM” value was 0%; the “Lck Activation above control, 30 µM” value was 0%.
